Experimental data published in patent CN111320694A.

Molecular target: GPC3蛋白 (Glypican 3 protein, recombinant) (UniProt P51654)
Assay: sandwich ELISA: GPC3 polyclonal antibody coated, GPC3 protein titrated, 0.2μg/mL GN2-Luc as detector, luminescence

UniProt P51654, sequence (P51654 25-559 limits assumed): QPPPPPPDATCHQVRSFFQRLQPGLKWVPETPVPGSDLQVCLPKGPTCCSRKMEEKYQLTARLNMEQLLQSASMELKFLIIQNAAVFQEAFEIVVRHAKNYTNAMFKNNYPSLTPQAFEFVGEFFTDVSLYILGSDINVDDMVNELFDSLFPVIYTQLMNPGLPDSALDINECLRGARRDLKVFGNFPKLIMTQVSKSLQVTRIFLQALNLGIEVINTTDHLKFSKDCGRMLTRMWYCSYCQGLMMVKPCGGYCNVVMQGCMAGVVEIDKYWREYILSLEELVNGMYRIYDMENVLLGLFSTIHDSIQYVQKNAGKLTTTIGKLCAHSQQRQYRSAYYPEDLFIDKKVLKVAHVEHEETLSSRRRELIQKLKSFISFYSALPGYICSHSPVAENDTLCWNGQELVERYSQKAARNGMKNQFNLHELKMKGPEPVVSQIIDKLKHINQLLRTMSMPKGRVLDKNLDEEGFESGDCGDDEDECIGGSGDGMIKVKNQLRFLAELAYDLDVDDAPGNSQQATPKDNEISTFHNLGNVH

EC20 (GPC3 concentration at 20% of the strongest luminescence): 0.0539 µg/mL
EC80 (GPC3 concentration at 80% of the strongest luminescence): 0.219 µg/mL
B1: 融合蛋白GN2-Luc (GN2-Nano-luciferase fusion protein) (protein, part only; not given: junction and purification tag, not shown: small tags and cut ends)
chain, part: QVQLVESGGGLVQPGGSLRLSCAASGFTLDAYAIGWFRQAPGKEREGVSYITSGTGTTLYADSVKGRFTISRDNAKNTVYLQMNSLKPEDTAVYFCTTLKRTTAGGWPIPGRIGGQGTQVTVSS
